Patent US20200325490A1 (AARHUS UNIVERSITET, published 2020)

Target: the molecule itself
Assay: Western blot with anti-His6 antibody: band of about 92 kDa against a theoretical mass of 47 kDa

B1: HvNEP-1 (Hordeum vulgare nepenthesin-1-type aspartic endoprotease), ΔHvNEP-1 with C-terminal His6 tag, expressed in Pichia pastoris KM71H (enzyme)
chain: DADTPKVAMASSGAGSSFRLAAHHDHALSRSDDGFLHVQSRLDNLLPSEANVTTLRPPVASPLDMAFSVVVGLGSGKGRHDYNLKLDASGSLTWVQCKPCNPKQPQRGPLFDPKASSTFQQVAGTSQICHPPYPMEPAGQQCAFHLSGMGGMSVHGYVAMENLTMGPEAMKEFVFGCSHSTGHFNSHGTFAGVAAMGKMPTSLVMQVAARGQTRFSYCLFSGGASRHGFLRFGADVPSRSGLRTTKILPALDAHESQYYVSLVGISLDAKRLTGVRPEMFARQRGGEGGCVVDPGTPLTVLVREAYRVVEDAVWSDLRRNKAERVQREGYGLCVRKTAEIKRHLQSLSLHFAEETARLVVKPEQLFVAVESRLHGAALCLAMRPGERTVIGALQQVDTRFVYDLKDAKLSFASEPCSQDTAGVDHHHHHH
notes: also called HvNEP-1 protease; truncated HvNEP-1
binding result: binds
